Tested on: MS2 coat protein
Assay: apparent KD of MS2 coat protein; designed switch direction (-1 OFF switch, 1 ON switch): -1; higher = weaker reporter binding
Summary of the method: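 An oligonucleotide input, 200 uM small-molecule ligand, or no input was present during titration of SNAP-549-labelled MS2 coat protein, which was doubled from 0.7 or 1.5 nM to 3 µM. Designed RNA switches had been transcribed on Illumina chips by stalled E. coli RNA polymerase. Apparent KD per design is the median over clusters of curves fitted to normalised cluster fluorescence.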

[1] = Eterna round: R95, input ligand: FMN 200 uM
[2] = Eterna round: R95, input ligand: microRNA oligo, concentration not stated
[3] = Eterna round: R95, input ligand: none
[4] = input ligand: microRNA oligo, concentration not stated

Sequence	apparent KD of MS2 coat protein [1]	apparent KD of MS2 coat protein [2]	apparent KD of MS2 coat protein [3]	apparent KD of MS2 coat protein (input ligand: FMN 200 uM)	apparent KD of MS2 coat protein [4]	apparent KD of MS2 coat protein (input ligand: none)
UUAUUACAAGCAAGAUCCCACAUGAGGAUCACCCAUGUGCUCGUCUUAUAAGGUACUGUGACGAAAGUCACGGUACC [Sensor 3, v1 - 100] (puzzle: Sensor v3, turn-off variant 1)	25.8 nM	701 nM	24.7 nM			
GUCAGCUCGUGAGGAUAUAUAUAUACAUGAGGAUCACCCAUGUUAGAUCAGCUUCGGCAGUAUAUAUAGAAGGCACGAGCUGAC [ENG2/15-A1] (Eterna round: R96, puzzle: Exclusion NG 2)				345 nM	78.9 nM	87.6 nM
GAGAAACAUGAGGAUCACCCAUGUGAGGAUAUGAAAAAGAAAAGAAAAGAAAGAAGAAUCAGAAGGCACAAAGG [salish99-ex1_r3_078] (puzzle: Exclusion 1)	45.3 nM	30.8 nM	39.1 nM			
CGUGCGUAUGUGAGGAUAUGCUGGUCCUUGGAUCGGCAGAAGGUACAUGAGGAUCACCCAUGUGGUGUCGUUCU [salish99_Bmod_ex4_106] (puzzle: Brourd's mod of Exclusion 4)		171 nM				
AAACCUGCCCAUGACCGCAAGCUUUUUGCUUGUCUUACCACAUGAGGAUCACCCAUGUGACAUGGGCUCCUUAUAAA [Usteorrila] (puzzle: Sensor v3, turn-off variant 2)	12.7 nM	9.84 nM	11.5 nM			
UUGGACGGAGGAUAUGCAGCGAGUAAUACGAUCGAUCCAAAACAUGAGGAUCACCCAUGUAGAAGGCUGACCAA [Eternabot (L1) Solution 11] (Eterna round: R97, puzzle: Exclusion 2)				174 nM		71.2 nM
AAUAAGAAGUAAGGAUAUCUGAAAGGAAGUGUAAGAGAAGGUACGGUGACGUCAGAACGACAUGAGGAUCACCCAUGUAAAGAA [PowerStrip EXNG 1.11] (Eterna round: R96, puzzle: Exclusion NG 1)				79 nM	69.6 nM	93.9 nM
CUCAAGUUAGGAUAUCCAAACGACACGUGCGGACGUUCAACGGAGAAGGGACUUGAGGAUCACCCAAGUUAAAA [Riusbireis] (Eterna round: R97, puzzle: Exclusion 4)				137 nM		45 nM
CCGGCUUAGGAGGAUAUCCCACCCGAAAGGGUGGGAGAAGGCCUAACAUGAGGAUCACCCAUGUGUCCUACCGG [Mod of Eli 15 - Jieux - Exclusion 6] (Eterna round: R97, puzzle: Exclusion 6)				91.2 nM		25.5 nM
UACUGACAUGAGGAUCACCCAUGUGAGGAUAUUCUCCUGCCAAAUUAAUGGUGGGUGUGAAGAAGGCACAAGGA [EX1 C.12] (Eterna round: R97, puzzle: Exclusion 1)				98 nM		29.1 nM
UAAAACGUAGGAUAUGCGGAAAAUAACUUGAGGAUCACCCAAGUGUCCGAGAGGCUAAAUGCAGAAGGACGAGAUC [Edxedi] (Eterna round: R97, puzzle: Exclusion 5)				179 nM		105 nM
CUCUAGUCAGGAUAUUAGUUGCCACCUGGACACAGGCGGCAUGAGAAGGGACUUGAGGAUCACCCAAGUAAAAG [Quaesbe] (Eterna round: R97, puzzle: Exclusion 4)				384 nM		758 nM
GGCAUCGGAGGAUAUACUUAUGGUGAUACCAGAAGCUUUCUACUUGAGGAUCACCCAAGUAGAAGGCCGAUGCC [jl-ex2.4.86 ViennaUCT mod] (Eterna round: R97, puzzle: Exclusion 2)				17.5 nM		26.2 nM
UAGUUAUUCACAGGAUAUCGCCUCUUAUUACAUGAGGAUCACCCAUGUUUAUUUUGUUACAUGUUCGAGAAGGGUGUAGUCUUU [JR_ExcNG2_Sub046] (Eterna round: R96, puzzle: Exclusion NG 2)				439 nM	436 nM	535 nM
AAUGUUUGAUACCUUUAAUACAUGAGGAUCACCCAUGUUAUCGAGGAUAUGUAGAUGAAAUGAGAACAGAAGGCGAAGUAAGAG [JR_ExcNG3_Sub098] (Eterna round: R96, puzzle: Exclusion NG 3)				19.5 nM	9.73 nM	24.4 nM
CCACGACAUGAGGAUCACCCAUGUGAGGAUAUGGCCUGAAAAGCGUGAGCAGUAUCAAUCAGAAGGCGCGUGGG [salish99_ex1_r4_061] (Eterna round: R97, puzzle: Exclusion 1)				116 nM		76.4 nM
GUAUGUGAGAGAGGAUAUCGUGUACAAAGUACACGAGAAGGCUUCACAUGAGGAUCACCCAUGUACCGAGGUGAAACACCUUGA [Omei Exc(NG)1 Bv9] (Eterna round: R96, puzzle: Exclusion NG 1)				1870 nM	298 nM	423 nM

Sequence	apparent KD of MS2 coat protein [1]	apparent KD of MS2 coat protein [2]	apparent KD of MS2 coat protein [3]	apparent KD of MS2 coat protein (input ligand: FMN 200 uM)	apparent KD of MS2 coat protein [4]	apparent KD of MS2 coat protein (input ligand: none)
CUUGUGUUAGGAUAUGUUAAGCCACCAACCAGUGGAUCAGGACAGAAGGAACAUGAGGAUCACCCAUGUAAAAG [Inedar] (Eterna round: R97, puzzle: Exclusion 4)				25.3 nM		67.4 nM
GCUUUUCUUUUCCUUUCUUACAUGAGGAUCACCCAUGUUUCUUGUCGCGCUCGCGUUGCUCGUCUGUCUGUCUGUUG [salish99_TOv1_r3_079] (puzzle: Sensor v3, turn-off variant 1)	43.1 nM	28.9 nM	54.7 nM			
GGGAGCAGACGGAGAUCCAACAUGAGGAUCACCCAUGUCUCCCAAGCUUUUUGCUUGUCUUAUCCUCCUCUGUUUCC [Design #9] (Eterna round: R97, puzzle: Sensor, turn-off variant 1)				17.2 nM		17.6 nM
AUGUUGCGAGGAUAUAUAAGGAGGUUAAAAUUUAUUAUGGAACAUGAGGAUCACCCAUGUAGAAGGUGCAUAAC [JR_Ex2_Sub038] (Eterna round: R97, puzzle: Exclusion 2)				49.6 nM		55.7 nM
GAAAACGUAGGAUAUUAAUACUUAUACAUGAGGAUCACCCAUGUUUGGUGGGUAAAAGAAUGAGAAGGGCGAUGAA [EX5 #9] (Eterna round: R97, puzzle: Exclusion 5)				392 nM		425 nM
AGAGUACAUGUGAGGAUAUCUGGAGUGUCCCACGAAGAGAAGGCACAUGAGGAUCACCCAUGUCGUCCCGGUUU [Eternabot (L1) Solution 28] (Eterna round: R97, puzzle: Brourd's mod of Exclusion 4)				22.5 nM		17.1 nM
ACUUAUUGAGGAUAUACAUUAAAAUACAUGAGGAUCACCCAUGUUCUUCAAUGUAUAUAUGUAGAAGGCAGAAGAA [JL-ex5-4.29 Malcolm mod] (Eterna round: R97, puzzle: Exclusion 5)				57.6 nM		22.2 nM
ACAUGUUAUGUAGGAUAUUGGACACAUGAGGAUCACCCAUGUACCCGGAGGCUUUACUAUGAGUUCGAGAAGGGUAUGAACAUG [Ex NG2 #68] (Eterna round: R96, puzzle: Exclusion NG 2)				39.8 nM	21.1 nM	29.4 nM
CGUAGUCUUCGGACUACGAACAUGAGGAUCACCCAUGUAUAGAGCAGAUCUUCAUGCAAGCUUUUUGCUCGUCUUAU [Sensor v3 - turn-off variant 1 - 48] (puzzle: Sensor v3, turn-off variant 1)	82 nM	10.8 nM	86.6 nM			
CCGCAAAUGGAGGAUAUCGUAUCGGAUACGAUACGAGAAGGCCAAACAUGAGGAUCACCCAUGUGUCCUAGCGG [Fiskers Ex 6 - 37] (puzzle: Exclusion 6)	30 nM	14.2 nM	18.6 nM			
GGAGGAAGAGAGGAUAUGCGCUCAAGGAGAAAAGCAGAAGGUUCAACAUGAGGAUCACCCAUGUAUGAUCCUCA [AK-MS2ROC-r4-exclusion6-4] (Eterna round: R97, puzzle: Exclusion 6)				342 nM		203 nM
GGGUACAAGCUAAGAUCCUACAUGAGGAUCACCCAUGUGGUCCGGUGACGUGAGUCACCGGACUUAGCUCGUCUUGU [salish99_S_TOV1_R5_003] (Eterna round: R97, puzzle: Sensor, turn-off variant 1)				59.3 nM		61.3 nM
ACAUGAGGAUCACCCAUGUACACGUAAUGGCUCAUGUAGAGUGAGGAUAUGUGAGACGAACGAGAACAGAAGGCACAAGACAGG [Deportation 9 - Jieux - Exclusion NG 3] (Eterna round: R96, puzzle: Exclusion NG 3)				29.1 nM	30.1 nM	35.9 nM
CAGGACAGAGGAUAUACAUAGAUACAGAUUCAUGUAGAACUACAUGAGGAUCACCCAUGUAGAAGGCUGACCUG [Fiskers Ex 2 - 4] (Eterna round: R96, puzzle: Exclusion 2)				311 nM	23.5 nM	31.5 nM
UAUUAGUGAGGAUAUGAGUCGUAGAACAAUAGUACUACGUCUCAGAAGGUACAUGAGGAUCACCCAUGUUCCUU [Fiskers Ex 4 Super Stable 44 mod 34] (puzzle: Exclusion 4)		12 nM				
AGCUGUGGCCGAGGAUAUCUAAAUUCUUAAAACGAAAUAUAAUCGAACAUGAGGAUCACCCAUGUAGAGAAGGCGGUCUCAGCA [Eli eng2 - 059] (Eterna round: R96, puzzle: Exclusion NG 2)					13.4 nM	
